Article PMC8106667 (Molecular cell, 2021)
Residue numbers refer to the chain shown, from its start. Names and notes keep the numbering of the source.

T1: MBP-ORC1 wild type, full length (human, UniProt Q13415 1-861)
T1 sequence (looked up): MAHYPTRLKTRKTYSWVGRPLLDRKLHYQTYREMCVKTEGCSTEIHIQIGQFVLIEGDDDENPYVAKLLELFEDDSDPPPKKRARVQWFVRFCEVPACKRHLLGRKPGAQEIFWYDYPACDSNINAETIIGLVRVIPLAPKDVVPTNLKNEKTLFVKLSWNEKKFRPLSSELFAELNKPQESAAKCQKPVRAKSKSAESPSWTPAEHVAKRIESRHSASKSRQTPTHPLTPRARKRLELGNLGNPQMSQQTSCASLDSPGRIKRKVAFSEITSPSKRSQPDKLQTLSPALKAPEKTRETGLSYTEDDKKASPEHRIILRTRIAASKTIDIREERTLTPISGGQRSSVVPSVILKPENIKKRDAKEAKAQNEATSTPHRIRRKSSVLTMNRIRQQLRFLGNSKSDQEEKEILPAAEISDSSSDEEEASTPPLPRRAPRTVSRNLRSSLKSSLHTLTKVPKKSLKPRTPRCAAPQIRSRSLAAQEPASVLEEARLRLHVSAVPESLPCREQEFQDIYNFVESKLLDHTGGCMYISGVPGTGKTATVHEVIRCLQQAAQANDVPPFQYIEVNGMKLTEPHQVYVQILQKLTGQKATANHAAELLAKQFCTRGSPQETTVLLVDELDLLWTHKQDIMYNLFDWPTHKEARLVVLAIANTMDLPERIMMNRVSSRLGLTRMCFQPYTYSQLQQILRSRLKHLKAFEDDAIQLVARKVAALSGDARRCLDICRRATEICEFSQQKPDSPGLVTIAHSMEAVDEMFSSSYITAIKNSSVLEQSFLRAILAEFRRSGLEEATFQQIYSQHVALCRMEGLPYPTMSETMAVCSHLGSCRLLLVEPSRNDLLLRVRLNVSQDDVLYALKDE

B1: GST-CDC6 1–110 (domain or fragment, human, UniProt Q99741 1-110, looked up)
chain: MPQTRSQAQATISFPKRKLSRALNKAKNSSDAKLEPTNVQTVTCSPRVKALPLSPRKRLGDDNLCNTPHLPPCSPPKQGKKENGPPHSHTLKGRRLVFDNQLTIKSPSKR
B2: GST-CDC6 triple mutant (K92A, R94A and R95A) (natural protein, human, UniProt Q99741 1-560, looked up)
chain: MPQTRSQAQATISFPKRKLSRALNKAKNSSDAKLEPTNVQTVTCSPRVKALPLSPRKRLGDDNLCNTPHLPPCSPPKQGKKENGPPHSHTLAGAALVFDNQLTIKSPSKRELAKVHQNKILSSVRKSQEITTNSEQRCPLKKESACVRLFKQEGTCYQQAKLVLNTAVPDRLPAREREMDVIRNFLREHICGKKAGSLYLSGAPGTGKTACLSRILQDLKKELKGFKTIMLNCMSLRTAQAVFPAIAQEICQEEVSRPAGKDMMRKLEKHMTAEKGPMIVLVLDEMDQLDSKGQDVLYTLFEWPWLSNSHLVLIGIANTLDLTDRILPRLQAREKCKPQLLNFPPYTRNQIVTILQDRLNQVSRDQVLDNAAVQFCARKVSAVSGDVRKALDVCRRAIEIVESDVKSQTILKPLSECKSPSEPLIPKRVGLIHISQVISEVDGNRMTLSQEGAQDSFPLQQKILVCSLMLLIRQLKIKEVTLGKLYEAYSKVCRKQQVAAVDQSECLSLSGLLEARGILGLKRNKETRLTKVFFKIEEKEIEHALKDKALIGNILATGLP
B3: GST-CDC6 Δ21–30 (natural protein, human, UniProt Q99741 1-560, looked up)
chain: MPQTRSQAQATISFPKRKLSDAKLEPTNVQTVTCSPRVKALPLSPRKRLGDDNLCNTPHLPPCSPPKQGKKENGPPHSHTLKGRRLVFDNQLTIKSPSKRELAKVHQNKILSSVRKSQEITTNSEQRCPLKKESACVRLFKQEGTCYQQAKLVLNTAVPDRLPAREREMDVIRNFLREHICGKKAGSLYLSGAPGTGKTACLSRILQDLKKELKGFKTIMLNCMSLRTAQAVFPAIAQEICQEEVSRPAGKDMMRKLEKHMTAEKGPMIVLVLDEMDQLDSKGQDVLYTLFEWPWLSNSHLVLIGIANTLDLTDRILPRLQAREKCKPQLLNFPPYTRNQIVTILQDRLNQVSRDQVLDNAAVQFCARKVSAVSGDVRKALDVCRRAIEIVESDVKSQTILKPLSECKSPSEPLIPKRVGLIHISQVISEVDGNRMTLSQEGAQDSFPLQQKILVCSLMLLIRQLKIKEVTLGKLYEAYSKVCRKQQVAAVDQSECLSLSGLLEARGILGLKRNKETRLTKVFFKIEEKEIEHALKDKALIGNILATGLP
B4: GST-CDC6 Δ11–20 (natural protein, human, UniProt Q99741 1-560, looked up)
chain: B3 chain with T11R, I12A, S13L, F14N, P15K, K16A, R17K, K18N, L19S
B5: GST-CDC6 Δ51–70 (natural protein, human, UniProt Q99741 1-560, looked up)
chain: MPQTRSQAQATISFPKRKLSRALNKAKNSSDAKLEPTNVQTVTCSPRVKAPPCSPPKQGKKENGPPHSHTLKGRRLVFDNQLTIKSPSKRELAKVHQNKILSSVRKSQEITTNSEQRCPLKKESACVRLFKQEGTCYQQAKLVLNTAVPDRLPAREREMDVIRNFLREHICGKKAGSLYLSGAPGTGKTACLSRILQDLKKELKGFKTIMLNCMSLRTAQAVFPAIAQEICQEEVSRPAGKDMMRKLEKHMTAEKGPMIVLVLDEMDQLDSKGQDVLYTLFEWPWLSNSHLVLIGIANTLDLTDRILPRLQAREKCKPQLLNFPPYTRNQIVTILQDRLNQVSRDQVLDNAAVQFCARKVSAVSGDVRKALDVCRRAIEIVESDVKSQTILKPLSECKSPSEPLIPKRVGLIHISQVISEVDGNRMTLSQEGAQDSFPLQQKILVCSLMLLIRQLKIKEVTLGKLYEAYSKVCRKQQVAAVDQSECLSLSGLLEARGILGLKRNKETRLTKVFFKIEEKEIEHALKDKALIGNILATGLP

target: T1, MBP-ORC1 wild type, full length; test: pull-down

binding result	Binder
binds	B1
binds	B2
binds	B3
binds	B4
binds	B5
